Paper PMC6451127
Changes are numbered by the printed parent chain. In names and notes the source's numbering stands.

B1: AtMAPDA (Arabidopsis thaliana) (protein)
chain: MEWIQSLPKIELHAHLNGSIRDSTLLELARVLGEKGVIVFADVEHVIQKNDRSLVEVFKLFDLIHKLTTDHKTVTRITREVVEDFALENVVYLELRTTPKRSDSIGMSKRSYMEAVIQGLRSVSEVDIDFVTASDSQKLHNAGDGIGRKKIYVRLLLSIDRRETTESAMETVKLALEMRDVGVVGIDLSGNPLVGEWSTFLPALQYAKDNDLHITLHCGEVPNPKEIQAMLDFKPHRIGHACFFKDEDWTKLKSFRIPVEICLTSNIVTKSISSIDIHHFADLYNAKHPLILCTDDFGVFSTSLSNEYALAVRSLGLSKSETFALARAAIDATFAEDEVKQQLRFIFDSASPEHV
B2: AtMAPDA (Arabidopsis thaliana; H65A) (protein)
chain: B1 chain with H65A
B3: AtMAPDA (Arabidopsis thaliana; T97A) (protein)
chain: B1 chain with T97A
B4: AtMAPDA (Arabidopsis thaliana; K100A) (protein)
chain: B1 chain with K100A
B5: AtMAPDA (Arabidopsis thaliana; T98A) (protein)
chain: B1 chain with T98A
B6: AtMAPDA (Arabidopsis thaliana; N17A) (protein)
chain: B1 chain with N17A

Substrate: CNc1ncnc2c1ncn2[C@@H]1O[C@H](COP(=O)(O)O)[C@@H](O)[C@H]1O
Experiment: purified protein
Type: biochemical, Arabidopsis thaliana
Details: 20 mM potassium phosphate pH 7.2, 25 °C

Protein | Km (250 nM enzyme) | Km
B1 | 4.14 µM | 
B2 |  | 5.51 µM
B3 |  | 8.94 µM
B4 |  | 6.89 µM
B5 |  | 4.52 µM
B6 |  | 7.12 µM
